Target: cyAbrB1 (Sll0359), N-terminally 6*His-tagged recombinant protein (Synechocystis sp. PCC 6803)
Assay: native gel or EMSA

Substance: cyAbrB1 (Sll0359), N-terminally 6*His-tagged recombinant protein (natural protein)
- stoichiometry N: 2

Reference: publication doi:10.1101/2021.11.17.468837
